Assay results published in patent US20180280504A1, “GLYCAN-INTERACTING COMPOUNDS AND METHODS OF USE” (SIAMAB THERAPEUTICS, INC., priority 2014, published 2018).

Experiments:
[1] = system: MDA-MB-231-STn Human Breast Tumor Xenograft; experiment: MDA-MB-231-STn human breast cancer xenograft model, tumor volume; format: in vivo, mouse; settings: 5 mg/kg i.p. once weekly
Source text: To evaluate antibody drug conjugates (ADCs) as single agents in an MDA-MB-231-STn Human Breast Tumor Xenograft model, 40 ICR SCID female mice age range 6-8 weeks were randomly separated into four separate groups, one vehicle control and three ADC treatments, then maintained individually with food/water ad libitum (see the following Table).
(§1) Animals were inoculated in the subcutaneous right flank with 5×10^6 breast tumor cells (MDA-MB-231-STn) in matrigel, mean tumor size was 175-225 mm^3 at study initiation. Animals were given either vehicle or antibody drug conjugates (5 mg/kg) by intraperitoneal injection once weekly. Tumor volume and percent body weight change were determined once weekly until study termination. The study was terminated when the tumor in the vehicle control animal reached a mean tumor weight ≥1500 mm^3. SE refers to “standard error.”

[2] = system: MDA-MB-231-STn Human Breast Tumor Xenograft; experiment: MDA-MB-231-STn xenograft model, clinical observations of tumors; format: in vivo, mouse; settings: 5 mg/kg i.p. once weekly
Protocol: as §1
(§2) Clinical observations of tumor shape, size and disposition were noted throughout the study.

[3] = system: COLO-205 Human Colon Adenocarcinoma Tumor Xenograft; experiment: COLO-205 human colon adenocarcinoma xenograft model, tumor volume; format: in vivo, mouse; settings: 5 mg/kg i.p. once weekly
Source text: To evaluate antibody drug conjugates (ADCs) as single agents in an COLO-205 Colon AdenocarcinomaTumor Xonograft model, 40 athymic nude female mice age range 6-8 weeks were randomly separated into four separate groups, one vehicle control and three ADC treatments, then maintained individually with food/water ad libitum (see the following Table).
(§3) Animals were inoculated in the subcutaneous right flank with 5×10^6 colon adenocarcinoma tumor cells (COLO-205) in matrigel, mean tumor size was 175-225 mm^3 at study initiation. Animals were given either vehicle or one of the antibody drug conjugates (5 mg/kg) by intraperitoneal injection once weekly. Tumor volume and percent body weight change were determined once weekly until study termination. The study was terminated when the tumor in the vehicle control animal reached a mean tumor weight >1500 mm^3. SE refers to “standard error.”

[4] = system: COLO-205 Human Colon Adenocarcinoma Tumor Xenograft; experiment: COLO-205 xenograft model, clinical observations; format: in vivo, mouse; settings: 5 mg/kg i.p. once weekly
Protocol: as §3, §2

[5] = system: E3-STn tumors; experiment: E3-STn allograft model, second round study, tumor volume; format: in vivo, mouse; settings: for Average Tumor Volume: 25 mg/kg i.p. twice weekly
Source text: Standard deviation values are listed in parenthesis.

[6] = PAA-glycan ELISA, AcSTn-PAA; format: binding; settings: 200 ng/well PAA antigen; 1:5 dilutions from 1 μM
Protocol: 18D2 and 18C7 antibodies were further characterized by ELISA comprising antigens other than BSM. ELISAs were carried out according to Example 2, with the exception that ELISA plates were coated with biotinylated polyacrylamide (PAA) particles comprising either AcSTn (AcSTn-PAA), GcSTn (GcSTn-PAA) or Tn (Tn-PAA) as antigens. These particles present the antigens in a multivalent format. Briefly, 96-well ELISA plates were coated with 200 ng/well of each PAA antigen and blocked with PBS with 1% OVA. Antibodies were serially diluted at 1:5 in PBS with 1% OVA using an initial concentration of 1 μM. After blocking, antibodies were added to the plates and plates were incubated for 1.5 hours at room temperature. Binding of anti-STn antibodies was detected using a goat anti-mouse IgG-HRP conjugated antibody (Jackson Immunoresearch Laboratories, West Grove, Pa.). The reaction was developed by addition of HRP substrate and hydrogen peroxide. The reaction was then stopped by the addition of sulfuric acid (1.6 M). Optical densities were measured at 490 nm. A dose-response curve was generated using readings at each concentration tested and a non-linear regression curve was generated with four-parameter modeling to determine EC50 values for each antibody.

[7] = Glycan array, Tn and other glycans; format: binding; settings: glycan microarray
Protocol: Optimized glycan arrays comprise 71 chemically synthesized and well-defined glycans, most of which comprise Neu5Ac and Neu5Gc glycan pairs.
300 ml of epoxy blocking buffer is prepared by combining 15 ml of 2 M Tris buffer (pH 8) with 0.9 ml of 16.6 M ethanolamine and 284.1 ml of distilled water. The solution was brought to a final pH of 9.0 with HCl. The solution is filtered using a 0.2 μM nitrocellulose membrane. The epoxy buffer solution as well as 1 L of distilled water are pre-warmed to 50° C. Glass slides are arranged in a slide holder and quickly submerged in a staining tub with the warmed epoxy blocking buffer. Slides are incubated in the epoxy blocking buffer for 1 hour at 50° C. with periodic shaking to deactivate epoxy binding sites. Next, slides are rinsed and blocked with PBS with 1% OVA at 25° C. for one hour. Serum samples with polyclonal antibodies (1:1000) or purified monoclonal antibodies (1 ug/mL), are diluted in PBS with 1% OVA and added to the glycan array for one hour at 25° C. After extensive washing, binding of antibodies are detected by incubating glycan microarray slides with Cy3-conjugated anti-mouse IgG (Jackson Immunoresearch, West Grove, Pa.) for one hour. Slides are then washed extensively, dried and scanned with a Genepix 4000B scanner (Laser at 100%; gain at 350; 10 μm pixels). […]

B1: S3F: 3F1 variable domains combined with IgG2a constant domains; heavy chain SEQ ID NO: 63, light chain SEQ ID NO: 64 (antibody)
heavy: QVQLQQSDAELVKPGASVKISCKASGYTFTDHAIHWVKQKPEQGLDWIGYISPGNGDIKYNEKFKDKVTLTADKSSSTACMHLNSLTSEDSAVYFCKRSLLALDYWGQGTTLTVSSAKTTAPSVYPLAPVCGDTTGSSVTLGCLVKGYFPEPVTLTWNSGSLSSGVHTFPAVLQSDLYTLSSSVTVTSSTWPSQSITCNVAHPASSTKVDKKIEPRGPTIKPCPPCKCPAPNLLGGPSVFIFPPKIKDVLMISLSPIVTCVVVDVSEDDPDVQISWFVNNVEVHTAQTQTHREDYNSTLRVVSALPIQHQDWMSGKEFKCKVNNKDLPAPIERTISKPKGSVRAPQVYVLPPPEEEMTKKQVTLTCMVTDFMPEDIYVEWTNNGKTELNYKNTEPVLDSDGSYFMYSKLRVEKKNWVERNSYSCSVVHEGLHNHHTTKSFSRTPGK
light: DIVMTQSHKFMSTSVGDRVSITCKASQDVGTNIAWYQQKPGRSPKVLIYSASTRHTGVPDRFTGSGSGTDFTLTISNVQSEDLTDYFCQQYSSFPLTFGVGTKLELKRADAAPTVSIFPPSSEQLTSGGASVVCFLNNFYPKDINVKWKIDGSERQNGVLNSWTDQDSKDSTYSMSSTLTLTKDEYERHNSYTCEATHKTSTSPIVKSFNRNEC
**Q.** Which “total tumor volume course” value ([1]; ICR SCID mice) does the source give for B1 here?
**A.** increased at all time points

**Q.** And the “Tumor Volume” value ([1]; day 1)?
**A.** 178.6 mm^3

**Q.** And the “Tumor Volume” value ([1]; day 4)?
**A.** 194.3 mm^3

**Q.** What about the “Tumor Volume” value ([1]; day 8) of the same molecule?
**A.** 244.9 mm^3

**Q.** And the “Tumor Volume” value ([1]; day 10)?
**A.** 301.0 mm^3

**Q.** And the “Tumor Volume” value ([1]; day 15)?
**A.** 445.1 mm^3

**Q.** And the “Tumor Volume” value ([1]; day 18)?
**A.** 609.7 mm^3

**Q.** What about the “Tumor Volume” value ([1]; day 23) of the same molecule?
**A.** 775.4 mm^3

**Q.** What about the “Tumor Volume” value ([1]; day 25) of the same molecule?
**A.** 972.7 mm^3

**Q.** What about the “clinical observations of tumor shape, size and disposition” value [2] of the same molecule?
**A.** fewer severe tumors with fluid secretion

**Q.** What about the “tumor volume course after day 8” value ([3]; athymic nude mice) of the same molecule?
**A.** continued to show rapid increase in volume

**Q.** What about the “Tumor Volume” value ([3]; study day 1) of the same molecule?
**A.** 182.8 mm^3

**Q.** What about the “Tumor Volume” value ([3]; study day 5) of the same molecule?
**A.** 315.2 mm^3

**Q.** And the “Tumor Volume” value ([3]; study day 8)?
**A.** 448.8 mm^3

**Q.** What about the “Tumor Volume” value ([3]; study day 10) of the same molecule?
**A.** 543.1 mm^3

**Q.** And the “Tumor Volume” value ([3]; study day 15)?
**A.** 655.3 mm^3

**Q.** What about the “Tumor Volume” value ([3]; study day 19) of the same molecule?
**A.** 850.6 mm^3

**Q.** What about the “Tumor Volume” value ([3]; study day 22) of the same molecule?
**A.** 938.2 mm^3

**Q.** What about the “Tumor Volume” value ([3]; study day 25) of the same molecule?
**A.** 1001.4 mm^3

**Q.** And the “clinical observations of tumors and signs of illness” value [4]?
**A.** necrosing tumors ranging in severity from slight to severe

B2: 7G9: anti-STn mouse monoclonal, IgG2b κ, from mouse #4407; VH SEQ ID NO: 12, VL SEQ ID NO: 9 (antibody, V domains shown)
VH: QVQLKESGPGLVAPSQNLSITCTVSGFSLTSYGVNWVRQPPGKGLEWLGVIWGDGSTNYHSALISRLIISKENSKSQVFLKLNSLQTNDTATYYCTKGFVYWGQGTLVTVSA
VL: QIVLTQSPAIMSASPGEKVTMTCSASSSVSYMHWYQQKSGTSPKRWIFDTSKLASGVPARFSGSGSGTSYSLTISSMEAEDAATYYCQQWSSNLLTFGAGTKLELK
**Q.** For B2, which “Average Tumor Volume” value ([5]; day 1 of treatment) is on record?
**A.** 125.9 mm^3

**Q.** What about the “Average Tumor Volume” value ([5]; day 5 of treatment) of the same molecule?
**A.** 135.2 mm^3

**Q.** And the “Average Tumor Volume” value ([5]; day 8 of treatment)?
**A.** 144.5 mm^3

**Q.** And the “Average Tumor Volume” value ([5]; day 12 of treatment)?
**A.** 157.2 mm^3

**Q.** And the “Average Tumor Volume” value ([5]; day 15 of treatment)?
**A.** 169.2 mm^3

**Q.** What about the “Average Tumor Volume” value ([5]; day 19 of treatment) of the same molecule?
**A.** 178.0 mm^3

**Q.** And the “Average Tumor Volume” value ([5]; day 22 of treatment)?
**A.** 186.4 mm^3

**Q.** What about the “Average Tumor Volume” value ([5]; day 26 of treatment) of the same molecule?
**A.** 195.9 mm^3

**Q.** What about the “Average Tumor Volume” value ([5]; day 29 of treatment) of the same molecule?
**A.** 199.4 mm^3

**Q.** What about the “Average Tumor Volume” value ([5]; day 33 of treatment) of the same molecule?
**A.** 201.5 mm^3

**Q.** What about the “Average Tumor Volume” value ([5]; day 36 of treatment) of the same molecule?
**A.** 206.5 mm^3

**Q.** And the “Average Tumor Volume” value ([5]; day 40 of treatment)?
**A.** 212.9 mm^3

**Q.** What about the “Average Tumor Volume” value ([5]; day 43 of treatment) of the same molecule?
**A.** 243.7 mm^3

**Q.** And the “Average Tumor Volume” value ([5]; day 47 of treatment)?
**A.** 277.5 mm^3

**Q.** And the “Average Tumor Volume” value ([5]; day 50 of treatment)?
**A.** 313.4 mm^3

**Q.** And the “average tumor volumes as compared to vehicle control” value ([5]; second round study, 25 mg/kg i.p. twice weekly for 7 weeks)?
**A.** greatly reduced

B3: 18C7: anti-STn mouse monoclonal, IgG2c κ, from mouse #4436; VH SEQ ID NO: 4, VL SEQ ID NO: 5 (antibody, V domains shown)
VH: QVTLKESGPGILQPSQTLSLTCSFSGFSLSTFGMGVGWIRQPSGKGLEWLAHIWWDDDKYYNPALKSRLTISKDTSKNQVFLKIANVDTADTATYYCARIAYYYGSERDYWGQGTTLTVSS
VL: QIVLTQSPAIMSASPGEKVTMTCSASSSISYMHWYHQKPGTSPKRWIYDTSKLASGVPARFSGSGSGTSYSLTISSMEAEDAATYYCHQRSSYTFGGGTKLEIKR
**Q.** Which EC50 [6] does the source give for B3 here?
**A.** 4.1 nM

**Q.** What about the “binding to Tn antigen or other glycans” value [7] of the same molecule?
**A.** No binding
